Laboratory results taken from patent US6468985B1, “Retinoblastoma protein-interacting zinc finger proteins” (The Burnham Institute, priority 1994, dated 2002).

Tests used:
[1] = target: T1, RIZ GTPase domain (GST-G) (Rattus norvegicus, UniProt Q63755); test: competition of unlabeled nucleotides for GTP binding of RIZ GTPase domain; conditions: 20 mM unlabeled nucleotide, 1 hr before α-32P-GTP
T1 construct: a fragment of RIZ from amino acid position 760-949 (RIZ 760-949), containing the putative GTPase domain; made in house; E. coli XL-1 blue is printed only for pKG7.1S)
T1 sequence (Q63755 760-949): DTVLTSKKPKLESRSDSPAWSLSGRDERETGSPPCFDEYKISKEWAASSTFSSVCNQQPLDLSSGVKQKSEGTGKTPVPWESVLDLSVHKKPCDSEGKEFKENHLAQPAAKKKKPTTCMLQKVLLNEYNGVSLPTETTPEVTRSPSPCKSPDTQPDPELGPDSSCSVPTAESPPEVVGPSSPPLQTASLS
Method: The GTPase domain of RIZ, which was defined by sequence homology, was evaluated to determine if it was functionally active. For these studies, a fragment of RIZ from amino acid position 760-949 (RIZ 760-949), containing the putative GTPase domain was expressed as a fusion to GST from the plasmid pKG-G and tested for binding to radiolabeled nucleotides. pKG-G was produced by PCR amplification of the nucleotide sequence encoding RIZ (760-949) using primers 5′-TCTCCACAGC ACAGCCCT-3′ (SEQ ID NO: 15), and 5′-GGATAAGGAG GCTGTCTG-3′ (SEQ ID NO: 16) and PCMVRIZ as template. The fragment was cloned into pBSK+ and then into PGEX-KG, expressed and purified by glutathionine-agarose as described above. GST was also expressed from vector PGEX-KG and purified as described above.
To measure GTP-binding, 0.5 μg of GST-RIZ or control GST proteins were separated by SDS-PAGE and blotted onto nitrocellulose. Proteins were renatured in GTP-binding buffer (50 mM Tris-HCl, pH8, 100 mM KCl, 10% glycerol, 0.1% Triton X-100, and 2 mM […]). The nitrocellulose was incubated for 30 min in GTP-binding buffer and then for 2 hr in GTP-binding buffer containing 1 μM α-^32P-GTP (800 Ci/mmol). The nitrocellulose was washed 5 times in GTP-binding buffer, dried and autoradiographed. In some samples, 20 mM unlabeled nucleotides were incubated with the nitrocellulose for 1 hr prior to the addition of α-^32P-GTP.

[2] = target: T2, Rb from HT1080 cell extract (Homo sapiens, UniProt P06400); test: GST-RIZ (215-462) glutathione-agarose pull-down of Rb from cell extract, anti-Rb immunoblot; type: binding; conditions: cell lysate from 293 stably transfected to express E1A as source
T2 construct: endogenous in cells; host or cells: HT1080 cells (lysate)
T2 sequence (P06400 1-928): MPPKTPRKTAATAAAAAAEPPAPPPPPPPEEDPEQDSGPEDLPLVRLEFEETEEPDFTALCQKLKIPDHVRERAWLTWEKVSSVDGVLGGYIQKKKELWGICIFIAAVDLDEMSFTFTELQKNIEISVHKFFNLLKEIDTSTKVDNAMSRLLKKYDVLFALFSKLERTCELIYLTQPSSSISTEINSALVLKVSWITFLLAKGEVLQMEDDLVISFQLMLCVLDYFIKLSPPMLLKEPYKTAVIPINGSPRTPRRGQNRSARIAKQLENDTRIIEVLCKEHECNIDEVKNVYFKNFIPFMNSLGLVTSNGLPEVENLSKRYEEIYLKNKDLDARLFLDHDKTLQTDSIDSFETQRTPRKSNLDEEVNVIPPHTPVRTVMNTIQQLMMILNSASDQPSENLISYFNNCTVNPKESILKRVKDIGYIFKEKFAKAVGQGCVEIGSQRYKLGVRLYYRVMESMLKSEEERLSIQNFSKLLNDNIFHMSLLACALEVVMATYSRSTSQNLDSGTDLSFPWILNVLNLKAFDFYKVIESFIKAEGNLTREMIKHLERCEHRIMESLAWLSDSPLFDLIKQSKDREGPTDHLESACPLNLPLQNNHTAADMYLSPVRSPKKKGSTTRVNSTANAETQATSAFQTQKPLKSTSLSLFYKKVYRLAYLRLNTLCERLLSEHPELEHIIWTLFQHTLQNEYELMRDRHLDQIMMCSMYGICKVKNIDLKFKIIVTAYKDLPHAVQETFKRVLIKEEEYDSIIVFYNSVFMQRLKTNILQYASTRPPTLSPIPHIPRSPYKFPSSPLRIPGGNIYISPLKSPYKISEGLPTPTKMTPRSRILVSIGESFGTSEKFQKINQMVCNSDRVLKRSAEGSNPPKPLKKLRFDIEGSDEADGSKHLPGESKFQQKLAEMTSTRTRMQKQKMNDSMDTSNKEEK
Method: Rat RIZ was tested for binding to Rb in HT1080 cells (ATCC #ICCL 121). The cells were grown in DMEM supplemented with […]. Cells were lysed in ELB buffer (50 mM HEPES, pH 7.5, 250 mM NaCl, 0.1% NP-40) supplemented with 5 mM EDTA, 50 mM NaF, 1 mM Na orthovanadate, 1 mM of DTT, aprotinin, leupeptin, and PMSF. The lysate was cleared of cell debris by centrifugation at 12,000 rpm for 10 min in a microfuge.
Binding between 4 μg GST-RIZ (215-462) and Rb from HT1080 cell extract was evaluated by first mixing the two, then binding GST-RIZ and any associated Rb to glutathione-agarose beads. The beads were washed in binding buffer and the bound complexes were eluted by boiling in SDS buffer and analyzed by immunoblotting with anti-Rb antiserum. Immunoblotting was performed by standard techniques (see, for example, Harlow and Lane, supra, 1988).

[3] = target: T3, wild-type full length Rb (A9), 35S-labeled (UniProt P06400 2-928, limits assumed, 35S label); test: preformed complex tested with anti-ce1
T3 construct: mature; also called wt-Rb; wild-type Rb
T3 sequence (looked up): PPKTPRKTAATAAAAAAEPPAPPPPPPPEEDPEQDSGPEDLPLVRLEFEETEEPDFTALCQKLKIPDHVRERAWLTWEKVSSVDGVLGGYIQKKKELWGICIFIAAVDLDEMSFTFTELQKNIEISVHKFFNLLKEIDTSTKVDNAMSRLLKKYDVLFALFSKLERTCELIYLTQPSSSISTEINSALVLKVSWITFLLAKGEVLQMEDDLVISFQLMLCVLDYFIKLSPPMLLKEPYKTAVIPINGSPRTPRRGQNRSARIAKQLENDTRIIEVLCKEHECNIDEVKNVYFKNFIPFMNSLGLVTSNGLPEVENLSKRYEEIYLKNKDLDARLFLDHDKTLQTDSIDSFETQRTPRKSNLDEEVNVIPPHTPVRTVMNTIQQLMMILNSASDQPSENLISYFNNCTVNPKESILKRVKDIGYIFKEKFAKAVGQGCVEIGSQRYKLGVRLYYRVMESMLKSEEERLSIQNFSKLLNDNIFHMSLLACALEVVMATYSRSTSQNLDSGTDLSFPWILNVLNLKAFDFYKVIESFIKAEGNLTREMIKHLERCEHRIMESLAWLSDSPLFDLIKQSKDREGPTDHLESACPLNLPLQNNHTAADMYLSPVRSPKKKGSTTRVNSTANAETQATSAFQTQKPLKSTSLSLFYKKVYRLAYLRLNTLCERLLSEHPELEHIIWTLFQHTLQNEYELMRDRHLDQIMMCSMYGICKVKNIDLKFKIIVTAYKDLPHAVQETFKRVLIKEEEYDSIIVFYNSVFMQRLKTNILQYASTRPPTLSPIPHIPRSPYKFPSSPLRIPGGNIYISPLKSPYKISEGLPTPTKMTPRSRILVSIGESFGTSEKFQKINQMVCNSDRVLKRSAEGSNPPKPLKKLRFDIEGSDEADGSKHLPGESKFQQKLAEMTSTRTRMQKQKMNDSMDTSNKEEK

[4] = target: T4, 56 kD fragment of Rb produced by bacterial expression from p56Rb plasmid (UniProt P06400 379-928); test: peptide competition against labeled RIZ (1-575) for 56 kD Rb
T4 construct: range 379-928; Expressed in E. coli; also called 56 kD Rb
T4 sequence (looked up): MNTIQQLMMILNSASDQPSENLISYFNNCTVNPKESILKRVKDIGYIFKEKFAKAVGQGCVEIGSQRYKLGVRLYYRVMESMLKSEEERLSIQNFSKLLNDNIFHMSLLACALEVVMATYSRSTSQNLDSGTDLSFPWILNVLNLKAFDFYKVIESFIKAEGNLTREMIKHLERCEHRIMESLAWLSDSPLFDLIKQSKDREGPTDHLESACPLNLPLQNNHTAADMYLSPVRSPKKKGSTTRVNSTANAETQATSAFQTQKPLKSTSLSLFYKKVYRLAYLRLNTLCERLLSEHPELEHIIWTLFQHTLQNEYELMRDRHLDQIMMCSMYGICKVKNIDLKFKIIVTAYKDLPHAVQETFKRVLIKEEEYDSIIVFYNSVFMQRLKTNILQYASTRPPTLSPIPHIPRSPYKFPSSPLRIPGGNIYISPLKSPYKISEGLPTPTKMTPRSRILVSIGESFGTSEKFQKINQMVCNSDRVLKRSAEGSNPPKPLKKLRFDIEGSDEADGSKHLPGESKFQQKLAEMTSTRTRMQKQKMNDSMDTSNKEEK

[5] = target: T3, wild-type full length Rb (A9), …; test: immunoprecipitation with anti-RIZ antiserum, SDS-PAGE, autoradiography
[6] = target: T3, wild-type full length Rb (A9), …; test: 35S-labeled full-length Rb preincubated with RIZ (215-462), immunoprecipitated with anti-ce1

## Nc1ncnc2c1ncn2[C@@H]1O[C@H](COP(=O)(O)OP(=O)(O)OP(=O)(O)O)[C@@H](O)[C@H]1O [ATP]
[1]
  effect of excess unlabeled nucleotide on binding of RIZ GTPase to radiolabeled GTP: did not effect binding

## Nc1ccn([C@@H]2O[C@H](COP(=O)(O)OP(=O)(O)OP(=O)(O)O)[C@@H](O)[C@H]2O)c(=O)n1 [CTP]
[1]
  effect of excess unlabeled nucleotide on binding of RIZ GTPase to radiolabeled GTP: did not effect binding

## Nc1nc2c(ncn2[C@@H]2O[C@H](COP(=O)(O)OP(=O)(O)OP(=O)(O)O)[C@@H](O)[C@H]2O)c(=O)[nH]1 [GTP]
[1]
  effect of excess unlabeled nucleotide on binding of RIZ GTPase to radiolabeled GTP: inhibited binding

## O=c1ccn([C@@H]2O[C@H](COP(=O)(O)OP(=O)(O)OP(=O)(O)O)[C@@H](O)[C@H]2O)c(=O)[nH]1 [UTP]
[1]
  effect of excess unlabeled nucleotide on binding of RIZ GTPase to radiolabeled GTP: did not effect binding

## E1A: adenoviral E1A protein; source was cell lysate from 293 stably transfected to express E1A [reference compound]
[2]
  inhibition of binding of GST-RIZ (215-462) to hypophosphorylated Rb: inhibited binding

B1: 35S labeled fragment of RIZ from amino acid position 1-575 (other)
chain: MHQNTESVAATETLAEVPEHVLRGLPEEVRLFPSAVDKTRIGVWATKPILKGKKFGPFVGDKKKRSQVRNNVYMWEVYYPNLGWMCIDATDPEKGNWLRYVNWACSGEEQNLFPLEINRAIYYKTLKPIAPGEELLVWYNGEDNPEIAAAIEEERASARSKRSSPKSRRGKKKSHENKNKGIRTHPTQLKASELDSTFANMRGSAEGPKEEDERPLASAPEQPAPLPEVGNQDAVPQVAIPLPACEPQPEVDGKQEVTDCEVNDVEEEELEEEEELEEEEEEELGEDGVEEADMPNESSAKEPEIRCEEKPEDLLEEPQSMSNEAREDSPDVTPPPHTPRAREEANGDVLETFMFPCQHCERKFATKQGLERHMHIHISTINHAFKCKYCGKRFGTQINRRRHERRHETGLKRRPSMTLQSSEDPDDGKGENVTSKDESSPPQLGQDCLILNSEKTSQEVLNSSFVEENGEVKELHPCKYCKKVFGTHTNMRRHQRRVHERHLIPKGVRRKGGLLEEPQPPAEQAPPSQNVYVPSTEPEEEGETDDVYIMDISSNISENLNYYIDGKIQTNSSTS
modifications: 35S label
notes: In vitro transcribed/translated from Spe I linearized template
[3]
  binding result: binds

B2: RIZ-Pep, 11 amino acid peptide EIRCEEKPEDL representing a portion of the cr2 motif of RIZ (peptide)
peptide: EIRCEEKPEDL
notes: Synthetic peptide; also called cr2 peptide
[4]
  binding result: binds

B3: glutathionine S-transferase (GST) fused to a fragment of RIZ from amino acid position 245-573 (other)
chain: CEPQPEVDGKQEVTDCEVNDVEEEELEEEEELEEEEEEELGEDGVEEADMPNESSAKEPEIRCEEKPEDLLEEPQSMSNEAREDSPDVTPPPHTPRAREEANGDVLETFMFPCQHCERKFATKQGLERHMHIHISTINHAFKCKYCGKRFGTQINRRRHERRHETGLKRRPSMTLQSSEDPDDGKGENVTSKDESSPPQLGQDCLILNSEKTSQEVLNSSFVEENGEVKELHPCKYCKKVFGTHTNMRRHQRRVHERHLIPKGVRRKGGLLEEPQPPAEQAPPSQNVYVPSTEPEEEGETDDVYIMDISSNISENLNYYIDGKIQTNSS
notes: Expressed from pKG7.1S in E. coli and purified on glutathione agarose; also called GSTZ13; not shown: glutathione S-transferase from vector pGEX-KG
[5]
  binding result: binds

B4: RIZ (215-462) with the GST portion removed by thrombin cleavage (other)
chain: PLASAPEQPAPLPEVGNQDAVPQVAIPLPACEPQPEVDGKQEVTDCEVNDVEEEELEEEEELEEEEEEELGEDGVEEADMPNESSAKEPEIRCEEKPEDLLEEPQSMSNEAREDSPDVTPPPHTPRAREEANGDVLETFMFPCQHCERKFATKQGLERHMHIHISTINHAFKCKYCGKRFGTQINRRRHERRHETGLKRRPSMTLQSSEDPDDGKGENVTSKDESSPPQLGQDCLILNSEKTSQEVLN
[6]
  binding result: binds
